Laboratory results reported in US20190119362A1.

Experiments:
[1] = molecular target: aIgE-Fab (Fab fragment of Omalizumab) (Humanized antibody/IgG1κ); experiment: ratio of 55% DBC for aIgE-Fab after against before 5 cycles of 50 mM NaOH
[2] = molecular target: aIgE-Fab (Fab fragment of Omalizumab) (Humanized antibody/IgG1κ); experiment: column breakthrough, 1 mg/mL aIgE-Fab, after 5 cycles of 50 mM NaOH for 30 minutes
[3] = molecular target: aIgE-Fab (Fab fragment of Omalizumab) (Humanized antibody/IgG1κ); experiment: column breakthrough, 1 mg/mL aIgE-Fab, 0.33 mL/min
[4] = molecular target: aTNFa-Fab (Fab fragment of Infliximab) (Chimeric antibody/IgG1κ); experiment: column breakthrough, 1 mg/mL aTNFa-Fab, quasi-static binding capacity at 55% breakthrough

Row | binding capability maintained after alkaline treatment [1] [%] | 55% DBC after the alkaline washing [2] [mg/mL] | 55% DBC before the alkaline washing [3] [mg/mL] | 55% DBC [4] [mg/mL-gel] | Substance
1 | 92.8 | 21.9 | 23.6 |  | LB5t-Wild.4d (tetramer of B5 domain of PpL 312), immobilized on agarose carrier
2 |  |  |  | 4.8 | commercially available Protein L carrier (HiTrap Protein L, GE Healthcare Bioscience)
